Measurements as given in paper PMC3320582, “Group A Streptococcus Secreted Esterase Hydrolyzes Platelet-Activating Factor to Impede Neutrophil Recruitment and Facilitate Innate Immune Evasion” (PLoS Pathogens, 2012).

System: [H][C@@](COCCCCCCCCCCCCCCCC)(COP(=O)([O-])OCC[N+](C)(C)C)SC(C)=O
Experiment: purified protein
Settings: 20 mM Tris-HCl, pH 8.0, DTNB, room temperature, substrate concentrations corrected for early hydrolysis

For “SsE (Streptococcus pyogenes serotype M1)”, the Km was 7.0 µM and the kcat was 69.6 s⁻¹.
